Results as given in patent publication US6645733B1, “Fluorescent intensity method for assaying binding between proteins or peptides” (Ingeneus Corporation, priority 1999, dated 2003).
No end group written: not given here.

Molecular target: T1, human AT1 receptor (Homo sapiens, UniProt P30556)
T1 construct: purchased NEN Life Science Products Inc., Boston, Mass; host or cells: Chinese hamster ovary (CHO) cells, purified membrane preparation
T1 sequence (P30556 1-359): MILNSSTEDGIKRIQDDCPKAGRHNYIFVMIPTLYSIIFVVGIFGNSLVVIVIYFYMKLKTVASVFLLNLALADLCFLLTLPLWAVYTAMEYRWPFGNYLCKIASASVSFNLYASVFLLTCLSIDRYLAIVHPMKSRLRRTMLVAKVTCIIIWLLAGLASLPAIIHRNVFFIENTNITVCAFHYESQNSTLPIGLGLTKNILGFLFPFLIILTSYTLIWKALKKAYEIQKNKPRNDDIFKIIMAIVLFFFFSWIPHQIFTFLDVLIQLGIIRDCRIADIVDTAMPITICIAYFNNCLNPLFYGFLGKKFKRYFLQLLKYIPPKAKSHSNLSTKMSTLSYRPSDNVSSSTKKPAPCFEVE
Assay: Competition binding experiment: displacement of wildtype Flu-AII from AT1 receptor by unlabeled ligand
Settings: all twelve concentrations 1 nM to 300 μM, 10 nM Flu-AII, 0.02 units AT1 receptor (data not shown)

## MLGFFQQPKPR [substance P]
  displacement of Flu-AII binding to AT1 receptor: unable to displace
